Consider 16 sequences from a protein production outcome set (Wang et al. 2014).

The nature of the series: label from the status in PepcDB records.

Consider “MKKKALLPLFLGIMIFLAGCDYSTPEKQDGFFFNTFVQPMKHLLQWLGNDVFHNNFGLAIIVLVLFIRLILLPFMLSNYKNSHMMREKMKVAKPEVDGIQEKVKRARTQEEKMAANQELMEVYKKYDMNPMKSMLGCLPILIQMPIIMGLYFVLKDKLVNGLSEHPHFLWFNLTKPDIWITVIAGVLYFIQAVVSSKTMPQEQRQMGYMMMVISPIMIIWISLQASSALGLYWSVSALFLVIQTHFANIYYSKLAKKEVQPFIEKYEREHNPYSKKKGKNTQVVSKKNKK”, for which the protein production entry is “failed”.

As to “MKKKIIIAIVASAITMTHFVGNTYADSKTEVSVTAPYNTNQIAKWLEAHAKPLKTTNPTASLNDLKPLKNMVGSASIVGLGEATHGAHEVFTMKHRIVKYLVSEKGFTNLVLEEGWDRALELDRYVLTGKGNPSQHLTPVFKTKEMLDLLDWIRQYNANPKHKSKVRVIGMDIQSVNENVYNNIIEYIKANNSKLLPRVEEKIKGLIPVTKDMNTFESLTKEEKEKYVLDAKQISALLEENKSYLNGKSKEFAWIKQNARIIEQFTTMLATPPDKPADFYLKHDIAMYENAKWTEEHLGKTIVWGHNGHVSKTNMLSFIYPKVAGQHLAEYYGKRYVSIGTSVYEGQYNVKNSDGEFGPYGTLKSDDPNSYNYIFGQVKKDQFFIDLRKANGVTKTWLNEQHPIFAGITTEGPDIPKTVDISLGKAFDILVQIQKVSPSQVHQLEHHHHHH”, the protein production entry is on record as “not failed”.

In the case of “MKKKLFSPIWLLPIVALALGAWLGIKSIKESGVEIQIHFPSATGIDVGKTLVKYQGLTVGKVKDIGIDDDLKGVNVKVMMDYRAKPFLNKETLFWLVTPKASITGVEGLDALFSGNYIAIQPGKGNAATFFEAERQPPPMQIGSEGVMIELTADKLGSLDVGSPVFFRQIPVGSVVSYRLDGNARVIISAFIQEQYARLVKKNSHFWNVSGVKVDASLAGIKVNTESLASILAGGVSFSSDEKAAAAQNGDSFALYDSETSALGGVEVSLTMNDGNGIDKGTRIVYRGISVGSIQSKNLTTTGVTAIAKFEPEYANLLTSDGRFWLEGADISLSGIKNPERLLTGSVINFLPGTNANTALPSSFALQSSAPDLLQAKKRLLTITSAENMGLTAGAEVRYKQLPIGQVLAVKLTKDLSAVEYQLELQPEFASLVRSDSYFIPESALSVDASIEGVSVKTRDLATLTKGAVSLIPGSNNTPVAANARLSLFSSVEEAKQFFERQQRLYFTLTSQDGADVSQGSPIYYKKMQIGRVESVNWQSKTEDFAIKIAIDKQFQPLMQKPKVFWRNSALDVSASLAGIDVAVAPLQGALKGSISLGLLENPLADPTASLKLYENKQLALAQAQAIRLTLSASAKLAAKAAIRYQGHQVGEVTQVKLNADLNTLSATAYLYGEYADHFSSSDAEYHMVEAQISLAGIKAPETLITGPYIGVLPGKSKQKATQFQAKLVESSYANVAEDALKFTLEDSNLGSMKVGTPIFFRGLKVGQIDGYSLSSQGNSVLMQAHIEPQYRHLVNKTSQFWDASGIKVDVGIFSGAQIEAGSLETLLAGGINVATKETTQANNRLSQGAVITLQHKAQTEWQEWAPAQ”, the protein production result is recorded as “failed”.

Consider “MKKKLFYYLFAVLCTATLFTSCSDDDDEVKYPIDTELAGGYVGNLSVNVDGNQMGTTENQKITISQSNKETNQIALSLKNFTFLVNVGDIEVDPCTVKAIDGGYAFEGQQNLDLVQPLGNCPVSISGTVKGSNINIEIGVKVGAPLNQNVKATFVGRKLTGSESSEAKIISFILDDDIVTEQPIINEEEGIVTFKVSDAAVDDDLSGMIPTIVVSSKAKITPASGVAQDFSNGKKVEYTVTAEDGTTKKYSVFIAGSSDYYSFETWKSLNDGAFEEPDGGWATSNTGVWFIKTVYPDVYNGDYPVVKSEDAKDGAVGVKLITLDTKGQAGADWGFIKIPAIPKVTSGSLFLGTFETDIQNTLNSTKFGNPYYSKPISVQFSYKYTPGAVYYTCPDPVKAEAVTEDPNTTDECSVTAVIYEVPYWETVDPDDANNKAYDKRLTGANLYTNTDQVIAMATFSSGVQEDYKDITLTLNYEKDYDPTKKYRFAIVFSSSKNGDKFSGAPGSTLIVDNVKVVAEK”, for which the protein production entry is reported as “failed”.

As to “MKKKSFSIVIAGGGSTFTPGIVLMLLDHLEEFPIRKLKLYDNDKERQDRIAGACDVFIREKAPDIEFAATTDPEEAFTDVDFVMAHIRVGKYAMRALDEQIPLKYGVVGQETCGPGGIAYGMRSIGGVLEILDYMEKYSPDAWMLNYSNPAAIVAEATRRLRPNSKILNICDMPVGIEDRMAQILGLSSRKEMKVRYYGLNHFGWWTSIQDQEGNDLMPKLKEHVSQYGYIPKTEAEAVEASWNDTFAKARDVQAADPDTLPNTYLQYYLFPDDMVKKSNPNHTRANEVMEGREAFIFSQCDMITREQSSENSEIKIDDHASYIVDLARAIAYNTGERMLLIVENNGAIANFDPTAMVEVPCIVGSNGPEPITVGTIPQFQKGLMEQQVSVEKLTVEAWAEKSFQKLWQALILSKTVPNARVARLILEDLVEANKDFWPELDQSPTRIS”, the protein production entry is “not failed”.

Regarding “MKKKYTIFAISMAVALVLGGEVQSINDSVEAQELQHTVKNVKQTEDFNPTKYANEIENFVKQQNPVSIKSLFSTIALKEKADFEKYGEANAAQVKMLWGSYVFFDFGFVKDSKIIEAIKNNPSVYAKFKKTVNINGTGAFLPGTGSPESISIKNNEDGSNIDSYAYYTPHNPDITKNADKTVVMHGGFRGGYEAGNDTPEIRTFYDKGYNILCVDNRATSLSGGDYVTFGQYESDDVQAWINHYLKDKPDQKIVLYGGSMGASTMMSVLAKNYSSNIKGIIENCGFANIRNELGYVYTMAAIGKNELKDLTGTDFAEDFSVTPMNLQKMMETINNYYIKPKANVDIDGNLPAQGITNAIMPKLFIHGESDLVVPFKDNGQYLATLGDTNNNYKFFVPKAGHGEAQTIDGNGYDKAISDYLNLIFK”, the protein production result is “failed”.

On to “MKKLKIVMTGGGSAGHVTPNLALVPKLKELGYEIEYIGTKDGIERSIIEKENIKYNCISSGKLRRYIDIKNFSDPFKVILGIFQSVSILRKKKPNIVFSKGGFVSVPVVIAAHFCRIPVIAHESDITPGLANRIAVPYCTKVCATFPESLNNIKGNKGILTGTPIRDELFKGSKIKGLEICGFTGEKPVLMIIGGSLGSKIIN”, for which the protein production entry is given as “failed”.

On to “MKKLNIALLGLGTVGSGVVKIIEENRQQIQDTLNKDIVIKHILVRDKSKKRPLNISQYHLTEDVNEILNDDSLDIIVEVMGGIEPTVDWLRTALKNKKHVITANKDLLAVHLKLLEDLAEENGVALKFEASVAGGIPIVNAINNGLNANNISKFMGILNGTSNFILSKMTKEQTTFEEALDEAKRLGFAEADPTDDVEGVDAARKVVITSYLSFNQVIKLNDVKRRGISGVTLTDINVADQLGYKIKLIGKGIYENGKVNASVEPTLIDKKHQLAAVEDEYNAIYVIGDAVGDTMFYGKGAGSLATGSAVVSDLLNVALFFESDLHTLPPHFELKTDKTREMMDSDAEINIKEKSNFFVVVNHVKGSIENFENELKAILPFHRSLRVANYDNQSYAAVIVGLESSPEELITKHGYEVDKVYPVEGV”, for which the protein production result is listed as “failed”.

As to “MKKLTVYLATTNPHKVEEIKMIAPEWMEILPSPEKIEVVEDGETFLENSVKKAVVYGKKLKHPVMADDSGLVIYSLGGFPGVMSARFMEEHSYKEKMRTILKMLEGKDRRAAFVCSATFFDPVENTLISVEDRVEGRIANEIRGTGGFGYDPFFIPDGYDKTFGEIPHLKEKISHRSKAFRKLFSVLEKILESENR”, the protein production entry is recorded as “not failed”.

For the sequence “MKKNDLSALQENCFCFCDEEISREAPFQVPIDFPEGFKVDTAEASAAVTWSTDNLSCISEPCLIQTGPEPEDIGVRYAVRVQGTITLLVSVSPVRNQYGQGDGAVSVIHTEEIDQVVYYAAQSGRCPDFSQITVEDLLIVPPFYGSPLTVAGTLVLPPSPDPQSYVFTANTGDSTVSVIDADLNTVVKTIPFSDVPTNLGVTFDKAFTYVLHGNTNLVSVIDNKTLTIINTITVGGGPRKIEFDPTDEFAYVMAAGSIYVINTASQSVIDVIPIPGALDFALDPNGQYVYTANGSSWSVDKYDVNTGQLVESIIDTFEFPSLITTPYAGNFAYVLNGELWPKGVTEISLSPLSRGGDFSRLFETLRTIVFSLDSTRAYFLEPYSEPFLINNLYVVNTARQRIIANVSLPGAFDLAVTPDKQYIYAAQPNDNAVTVYRTSDYTAVTVIPVGAGPSAIAMLEHHHHHH”, the protein production result is recorded as “failed”.

With “MKKNILFIQGGGEGGYEADKHLVASLQQALGKDYAIQYPELSSDETAPDFGWPQQIGTLLSKTDDEIILAAHSLGASMLLKYLSEYVVKNKKIAGVFLLAAPFWEGKEEWKTGLKLKEHFSDTLPKDVPFFFYQCRDDEEVPFSHLEQYRKKLSRAAFREISSGGHTFHTDLSVLATDISAL”, the protein production result was “failed”.

Take “MKKNNAISNFYRILSIVLEIFIVAFSIYLAYMVRFRFRIIPPKFNYAPFERSLPFTIIVYMVFMYIFGLVDILKKSLWEIVYSIFLTVIMLFVFTMAITFSLRGFSYPRLVILLSSVFQFFLLSIFKCLWWKLERKIYGTKNTVIIGQNGESIAKKILLKHDDLYSISSIIKNYTEDKKSIVEKADIVLISDDLDENTKSTIIKESMYMNKNIFIVPSVTDIAFYKANFEQIDDVPILKVDTLELSAEQKTVKRLLDIVVAIIATVVFSPFLIILPIIIKCTDGGSPFYFQERVTNGGKKFKLIKFRSMIVNAEKHSGPVLVTENDSRITKIGKIMRATRLDEIPQLFNILKGDMSIVGPRPERPFYVEKFEKEIPDYKYRTFVKAGLTGLAQVLGKYNTTPEDKIKYDIMYIKNYSILLDIKLIIQTVKIMFMKESTEAVKDDVELEEILKKKNIKIKIY”: the protein production entry is given as “failed”.

For “MKKPVLETWLERGLFASRWLMAPFYVGLVVALAALMVVFFQELFQELPRVPSMTPESAILMALTLIDLSLAANLMVIVILSGYENFVSKIDTASHEDRPEWMGTVDFSGLKMKLIASIVAISAIALLKAFLKLTEPGQTVDQVRLFWLVMVHLSFVVSGVLLAVMDWLNAKVAKS”, the protein production result is recorded as “failed”.

In the case of “MKKQEKGNEVVTFEENPSTYVHHHTKKASMVLSEQEIEVILQSNKETYNEKLEKNTKENAEKVGIEEGNGSSSKITPCIFYTSDEKARLRWSSDLHDCFVNAVEKLGGPNKATPKSVKEAMEVEGIALHHVKSHLQKFRLGKCNIRGGTNQYVRQSQSMPHKSQQQLQLNNDCVNHDSYCNATFLSVTVPPTIDSLHQDTLNNTILFPTTLQAIPTSVSHNTYMSSYPSYNTVEVVKAQLNALQDSSTSQTQETFSRETNLSSIVTRDEADPVDKYIDWNKVGETDIEHDSVEVLEALGLK”, the protein production result was “failed”.

On to “MKKQLIILTTLSTCIFLSACNDNNDSGSYVSSPSIPENNIQNPVVRMDAYTSTDMSLVANESLLMTYKMLGINNKEVQATALVFTPKGVPPVGGWPIVAWAHGTTGVADVCAPSRNVMDENVKTMITQLLAQGYVVVAPDYEGLGEPSGKEIHPFLNVKSEAYSITDAVVAAKSYLGAKAATRWVAVGHSQGGQAALGAAQYASRAKLTYKGTIAVAPASNLDLILNAGELSAANQPVAVQIPTYTNLDTYTALITAGLRNPNPSLQYSQIFKTPSDSIAAQAESVCAPALGQSFAAGLTEYSNKNNNTLVGYGRTQDGFLNLPVVKNFTSTDGQPLTVKVSTPIKIYQGQADTTVPLIATNKLVTEAKLAGTNINFITNETWTHGSAYSLNISNIVTDVNTLFTQ”, for which the protein production result is listed as “failed”.

Regarding “MKKRIILLLAVIIAAAAAGVAFYVAKDKGHEKAADVSVNTESGDELLVSITDTDLLTKYYENDKVIHEEKLTSYPAFALDQKQQVLYYTGNNEQNEMRLFKLDLKSHKKTMLYKGAESADSLFLSKDRSTIYFRLGKADESNFRIAAFDLKTKKYKNLYPAANDQDDTVSSFFYNQKNDSFALLHYSVEEDYKKTDEANEKGIDPEPTTIHFAEGRQNKFNELKSLNQFISDIAVSDDDKRILFTSYTQKGTEQTASIQMLNADTKKYESIISNQKSFKLLIDAQPQFSKDGKNIYFLAEAKGAKKLKDETGREAKVRTIYSYSLENKTFKKVWENPNGIINSFFVIN”, the protein production entry is “failed”.
